Test results taken from article PMC3207831, “Determinants of the Differential Antizyme-Binding Affinity of Ornithine Decarboxylase” (PLoS ONE, 2011).
Each block holds one molecule with its values, some of them ahead of it.

Experiments:
[1] = target: ODC_7M (ODC_Q119H/A124R/N125D/Q129D/E136V/V137D/M140E) (human) (UniProt P11926)
[2] = target: human ornithine decarboxylase, wild type (human) (UniProt P11926)
[3] = target: ODC_7M (ODC_Q119H/A124R/N125D/Q129D/E136V/V137D/M140E) (human) (UniProt P11926); experiment: AUC; sedimentation velocity, 20°C, 42,000 rpm, absorbance at 280 nm; ODC fixed at 0.3 mg/mL, AZ 0.03, 0.06 or 0.09 mg/mL; global fit to the AB hetero-association model (SEDPHAT)
[4] = target: ODC_7M(-Q119H) (ODC_A124R/N125D/Q129D/E136V/V137D/M140E) (human) (UniProt P11926); experiment: as above
ODC_7M(-V137D) (human) = ODC_7M(-V137D) (human) (UniProt P11926); experiment: as above
[5] = target: ODC_Q119H/V137D/M140E (human) (UniProt P11926); experiment: as above
[6] = target: human ornithine decarboxylase, wild type (human) (UniProt P11926); experiment: as above
[7] = target: the molecule itself; experiment: AUC; sedimentation velocity, 20°C, 42,000 rpm, continuous size distribution (SEDFIT); ODC in the absence of AZ

ODC enzyme activity left with increasing AZ (ODC 20 μg/mL, AZ 0 to 28 μg/mL); value at a molar ratio of 1:1 AZ:ODC [1]: 90%
ODC enzyme activity left with increasing AZ (ODC 20 μg/mL, AZ 0 to 28 μg/mL); value at a molar ratio of 2:1 monomeric AZ to dimeric ODC [2]: 30%
Kd [3]: 12.4 µM
Kd [4]: 1.42 µM
Kd (ODC_7M(-V137D) (human)): 1.2 µM
Kd [5]: 9.95 µM
Kd [6]: 0.22 µM
Molecule: antizyme (from UniProt P54368 1-228) (natural protein)

B1: human ornithine decarboxylase, wild type (enzyme, UniProt P11926 1-461, looked up)
chain: MNNFGNEEFDCHFLDEGFTAKDILDQKINEVSSSDDKDAFYVADLGDILKKHLRWLKALPRVTPFYAVKCNDSKAIVKTLAATGTGFDCASKTEIQLVQSLGVPPERIIYANPCKQVSQIKYAANNGVQMMTFDSEVELMKVARAHPKAKLVLRIATDDSKAVCRLSVKFGATLRTSRLLLERAKELNIDVVGVSFHVGSGCTDPETFVQAISDARCVFDMGAEVGFSMYLLDIGGGFPGSEDVKLKFEEITGVINPALDKYFPSDSGVRIIAEPGRYYVASAFTLAVNIIAKKIVLKEQTGSDDEDESSEQTFMYYVNDGVYGSFNCILYDHAHVKPLLQKRPKPDEKYYSSSIWGPTCDGLDRIVERCDLPEMHVGDWMLFENMGAYTVAAASTFNGFQRPTIYYVMSGPAWQLMQQFQNPDFPPEVEEQDASTLPVSCAWESGMKRHRAACASASINV
notes: human ornithine decarboxylase (ODC, EC 4.1.1.17); Homodimer in the absence of AZ by sedimentation velocity; also called hODC; source: E. coli JM109 (pQE30), purified (Ni-NTA)
stoichiometry N [7]: 2
